Measured values as given in the supplement of paper PMC10126150.
± gives the standard deviation of the averaged measurements.

Test system: ATP
Test: switch fluorescence ratio, 500 uM ATP over buffer (Cy3 cluster intensity, sum of 5 cycles each) (fold (ratio)); higher = stronger signal-on switching upon ATP binding; sequences stand for … in TCGTCGGCAGCGTCAGATGTGTATAAGAGACAGTTTTTTTTTTTTTTTTTTTTTTTTT…TC
Details: aptamer strand: ATP DNA aptamer (quencher-CACCTGGGGGAGTATTGCGGAGGAAGG + anchor), 100 nM annealed; ATP concentration: 500 uM
Procedure, shortened: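 Clusters carrying Cy3-labelled switching strands on a modified Illumina MiSeq flow-cell were annealed to 100 nM quencher-labelled ATP aptamer and imaged in selection buffer. They were imaged again after 15 min with 500 uM ATP at 22 °C, over five buffer/ATP cycles with NaOH stripping and re-annealing in between. For each cluster, the fluorescence ratio is the summed Cy3 intensity of the target cycles divided by that of the buffer cycles, averaged per switch-domain sequence. Clusters outside 100-1000 RFU were left out.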
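Further: ATP exposure 15 min at 22 °C before imaging.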

Sequence	switch fluorescence ratio
CGGTCATTCA	1.02 ± 0.055
CGGTCCGGG	1.05 ± 0.061
CGGTCCGGTT	0.9862 ± 0.0018
CGGTCGCAGT	1.02 ± 0.055
CGGTCGGGAA	1.005 ± 0.01
CGGTCGGGAT	0.9606 ± 0.0031
CGGTCGGGCG	1.03 ± 0.023
CGGTCTATTG	1.002 ± 0.0098
CGGTCTCATC	1.02 ± 0.014
CGGTGAAGTT	0.966 ± 0.01
CGGTGCATGG	0.991 ± 0.1
CGGTGCCTTG	0.978 ± 0.026
CGGTGCGATT	1.03 ± 0.019
CGGTGCTACT	1.03 ± 0.063
CGGTGCTGCG	1.065 ± 0.0039
CGGTGGCTCC	1.026 ± 0.0025
CGGTGGGAGA	1.023 ± 0.0078
CGGTGGGAGT	0.973 ± 0.03
CGGTGGGGGA	0.986 ± 0.025
CGGTGGGGGC	0.9806 ± 0.0057
CGGTGGTGAG	1.012 ± 0.0049
CGGTGGTTGT	0.9948 ± 0.0052
CGGTGTACGC	1.061 ± 0.0034
CGGTGTATCG	0.983 ± 0.027
CGGTGTGTCT	1.02 ± 0.019

Sequence	switch fluorescence ratio
CGGTGTTGTT	1.018 ± 0.0014
CGGTGTTTGG	0.972 ± 0.015
CGGTTAGACT	0.975 ± 0.05
CGGTTAGTGT	0.971 ± 0.035
CGGTTATATG	1.02 ± 0.015
CGGTTCGCGT	0.972 ± 0.031
CGGTTCTCTC	1.02 ± 0.013
CGGTTGACTT	0.992 ± 0.057
CGGTTGATGC	0.997 ± 0.059
CGGTTGGTGA	0.974 ± 0.035
CGGTTGTACC	1.007 ± 0.0079
CGGTTGTGAA	0.963 ± 0.018
CGGTTGTGGG	0.996 ± 0.018
CGGTTTCTGG	0.9856 ± 0.0053
CGGTTTCTTT	0.967 ± 0.053
CGGTTTGACT	0.9563 ± 0.0063
CGGTTTGCGG	0.982 ± 0.017
CGGTTTGGAT	1.01 ± 0.035
CGGTTTGGTG	1.01 ± 0.029
CGGTTTTAAG	1.02 ± 0.018
CGGTTTTGTA	0.971 ± 0.028
CGGTTTTGTT	1.02 ± 0.035
CGTAAAAGAT	1.04 ± 0.06
CGTAAAATCG	0.995 ± 0.042
CGTAAATTAT	0.993 ± 0.029

Sequence	switch fluorescence ratio
CGTAAATTGG	1.02 ± 0.013
CGTAATAAGG	0.98799 ± 0.00022
CGTAATGAAG	1.004 ± 0.0064
CGTAATGCCT	1.03 ± 0.098
CGTACATGT	1.02 ± 0.024
CGTACGTCAT	1.08 ± 0.04
CGTACGTTCT	1.026 ± 0.0096
CGTACTTCCG	1.019 ± 0.0053
CGTACTTGGG	0.982 ± 0.011
CGTAGAATGT	0.992 ± 0.022
CGTAGAGAGG	0.998 ± 0.0029
CGTAGCTTTT	1.82 ± 0.67
CGTAGGCGTA	0.98 ± 0.03
CGTAGGGGCT	1 ± 0.011
CGTAGTTCTT	1.01 ± 0.03
CGTAGTTTCG	1.013 ± 0.008
CGTAGTTTTA	1.044 ± 0.0041
CGTATAGGAT	1.01 ± 0.036
CGTATATAGT	1.01 ± 0.014
CGTATATGTG	0.989 ± 0.035
CGTATCAAAA	1.02 ± 0.019
CGTATGAAAA	1 ± 0.014
CGTATGAAGA	1.02 ± 0.016
CGTATGCAGT	1.01 ± 0.011
CGTATGCTGG	1.02 ± 0.019

Sequence	switch fluorescence ratio
CGTATGGGAA	1.026 ± 0.0082
CGTATTAGGT	0.9553 ± 0.0086
CGTATTATTA	0.988 ± 0.03
CGTATTCGCT	0.993 ± 0.021
CGTATTTCAG	0.983 ± 0.011
CGTCAACTGC	1.17 ± 0.039
CGTCACCGGG	1.11 ± 0.032
CGTCACTAGC	1.04 ± 0.022
CGTCAGGGGG	0.972 ± 0.027
CGTCATGGGT	1 ± 0.035
CGTCATTTTC	1.05 ± 0.1
CGTCCATTGA	1.03 ± 0.019
CGTCCGGATG	1.19 ± 0.13
CGTCCGGCAG	1.67 ± 0.083
CGTCCTATTT	1.01 ± 0.029
CGTCCTCATG	1.302 ± 0.0067
CGTCGAGTGC	0.962 ± 0.011
CGTCGCCGGT	1 ± 0.0078
CGTCGGAGGG	0.977 ± 0.013
CGTCGGAGTG	1.01 ± 0.022
CGTCGGGAAT	1.35 ± 0.051
CGTCGGGGCA	0.964 ± 0.074
CGTCGTAAAA	0.999 ± 0.036
CGTCTAAGGG	1.06 ± 0.13
CGTCTGGGAT	1.01 ± 0.037

Sequence	switch fluorescence ratio
CGTCTGTCTG	0.976 ± 0.033
CGTCTTAAAG	1 ± 0.036
CGTCTTAGTT	0.993 ± 0.015
CGTGAAAATC	0.9987 ± 0.0075
CGTGACAGAG	0.992 ± 0.02
CGTGAGAAGT	0.9923 ± 0.0041
CGTGAGAATG	0.997 ± 0.026
CGTGAGGGGG	1.01 ± 0.012
CGTGAGGGGT	0.994 ± 0.026
CGTGAGTGGT	1.018 ± 0.0037
CGTGAGTTTG	0.9888 ± 0.0082
CGTGATAAAG	0.9911 ± 0.0089
CGTGATATTG	1.01 ± 0.017
CGTGATTAAG	1.09 ± 0.17
CGTGATTTGA	0.986 ± 0.014
CGTGCACATT	0.983 ± 0.012
CGTGCATCGA	1.0092 ± 0.00045
CGTGCCAGCA	0.983 ± 0.045
CGTGCCAGCT	0.9518 ± 0.00082
CGTGCCGGGG	0.968 ± 0.053
CGTGCGGGGA	1.02 ± 0.032
CGTGCGGGTT	0.993 ± 0.047
CGTGCTAGTA	1.02 ± 0.058
CGTGCTGTT	1.01 ± 0.027
CGTGGAGGGT	0.9966 ± 0.0042

Sequence	switch fluorescence ratio
CGTGGATGTG	0.9885 ± 0.0027
CGTGGATGTT	0.9831 ± 0.0034
CGTGGCAAAG	1.02 ± 0.015
CGTGGCAGCA	1.0326 ± 3.9e-05
CGTGGCGCGT	1.05 ± 0.11
CGTGGCTATG	0.959 ± 0.019
CGTGGCTGGT	0.996 ± 0.013
CGTGGGGATA	1.031 ± 0.009
CGTGGGGGAC	0.997 ± 0.033
CGTGGGGGCA	0.9538 ± 0.0076
CGTGGGGTGT	1.01 ± 0.039
CGTGGGTCCA	1.024 ± 0.01
CGTGGGTGTT	0.946 ± 0.015
CGTGGTATGG	0.9976 ± 0.003
CGTGGTTTTT	1.01 ± 0.023
CGTGTACATC	1.01 ± 0.011
CGTGTACGGA	1.022 ± 0.0021
CGTGTATTTG	0.989 ± 0.011
CGTGTCAGCA	0.9937 ± 0.0055
CGTGTCGCCT	1.01 ± 0.015
CGTGTCGCGC	1.002 ± 0.01
CGTGTGAGAC	1.02 ± 0.014
CGTGTGAGGG	1.01 ± 0.015
CGTGTGAGGT	0.9972 ± 0.008
CGTGTGGCGA	1.06 ± 0.015

Sequence	switch fluorescence ratio
CGTGTGGGGG	1.02 ± 0.031
CGTGTGGTAG	0.992 ± 0.044
CGTGTGTGCA	1.004 ± 0.0024
CGTGTGTTTT	1 ± 0.0068
CGTGTTCGCT	0.9921 ± 0.0016
CGTGTTGAGG	0.991 ± 0.023
CGTGTTGGGG	0.971 ± 0.039
CGTGTTTGTT	0.988 ± 0.022
CGTTAAACTT	1.01 ± 0.012
CGTTAAGGGA	0.978 ± 0.021
CGTTACGCTG	0.979 ± 0.026
CGTTACTATA	1.08 ± 0.011
CGTTAGAGAG	0.99 ± 0.03
CGTTAGGGAG	0.95456 ± 0.00035
CGTTAGGGGA	0.999 ± 0.011
CGTTATAAAT	0.996 ± 0.029
CGTTATATCC	1.06 ± 0.021
CGTTATGGGA	0.976 ± 0.022
CGTTCAATGT	1.026 ± 0.0085
CGTTCAGCGG	0.996 ± 0.023
CGTTCATATG	0.963 ± 0.023
CGTTCCGGGG	1.03 ± 0.036
CGTTCCGGTC	1.06 ± 0.054
CGTTCGTGTG	1.017 ± 0.0044
CGTTCTATTG	1.02 ± 0.086

Sequence	switch fluorescence ratio
CGTTGAGGGT	0.99 ± 0.014
CGTTGATTAG	0.984 ± 0.014
CGTTGCATGC	1.39 ± 0.099
CGTTGCCGCT	0.934 ± 0.054
CGTTGCGCGT	0.993 ± 0.037
CGTTGCGGTA	1.04 ± 0.026
CGTTGCTTTT	1.01 ± 0.026
CGTTGGCGAG	1.01 ± 0.031
CGTTGGGCTG	1.02 ± 0.038
CGTTGGGGGG	0.999 ± 0.03
CGTTGGTACG	1 ± 0.022
CGTTGTAAGG	1.01 ± 0.027
CGTTGTCGTT	1.01 ± 0.055
CGTTGTTCGC	1.02 ± 0.028
CGTTTAAAAG	0.975 ± 0.022
CGTTTAGACG	1.09 ± 0.095
CGTTTATCTG	0.972 ± 0.025
CGTTTCAGGT	0.994 ± 0.036
CGTTTCATCT	0.987 ± 0.065
CGTTTCCTTT	0.993 ± 0.024
CGTTTCTGGG	1.007 ± 0.0015
CGTTTGAAAA	1.019 ± 0.0058
CGTTTGAATA	0.974 ± 0.052
CGTTTGATGC	1.018 ± 0.0033
CGTTTGCCGT	0.985 ± 0.024
